# Reference: paper doi:10.1101/2020.07.08.161463 (bioRxiv, 2020)
# B1: G domain of SEPT7 (domain or fragment)
# chain: YRKSVKRGFEFTLMVVGESGLGKSTLINSLFLTDLYSPEYPGPSHRIKKTVQVEQSKVLIKEGGVQLLLTIVDTPGFGDAVDNSNCWQPVIDYIDSKFEDYLNAESRVNRRQMPDNRVQCCLYFIAPSGHGLKPLDIEFMKRLHEKVNIIPLIAKADTLTPEECQQFKKQIMKEIQEHKIKIYEFPETDDEEENKLVKKIKDRLPLAVVGSNTIIEVNGKRVRGRQYPWGVAEVENGEHCDFTILRNMLIRTHMQDLKDVTNNVHYENYRSRKLAAVT
# Molecular target: the molecule itself
# Experiment: SEC-MALS
protein,measurement,value
B1,stoichiometry N,2
